Measured values reported in the supplement of paper PMC9170038.

System: MS2 coat protein
Assay: apparent KD of MS2 coat protein; higher = weaker reporter binding
Settings: Eterna round: R107
Description: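 RNA-MaP round R107: designed RNA switches with theophylline, tryptophan, arginine or FMN aptamers are transcribed on-chip within common flanks. They are titrated with SNAP-549-labelled MS2 coat protein in RNA-MaP buffer (100 mM Tris pH 7.5, 80 mM KCl, 4 mM MgCl2), without ligand or with the indicated ligand. Median apparent KD per design.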

[1] = input ligand: theophylline 20 uM
[2] = input ligand: theophylline 2 mM
[3] = input ligand: tryptophan 2.4 mM

Row | Sequence | apparent KD of MS2 coat protein (input ligand: arginine 13.2 mM) [nM] | apparent KD of MS2 coat protein (input ligand: none) [nM] | apparent KD of MS2 coat protein [1] [nM] | apparent KD of MS2 coat protein [2] [nM] | apparent KD of MS2 coat protein [3] [nM]
1 | ACCUGUACGAAAAGUGCAGGACACGAAUAACGAGGACCGGUACGGCCGCCACUCGGAAAAUAACCUGAGGAUCACCCUGGUCGUG [TrypAS 7 #AlternativeMS2 #Zipper #StaticStem] | 29.5 | 31.6 | 37.5 | 40.1 | 33.9
2 | UGUAUGUGAUCUGAUACCAGCUAGCGGAAACGCAAGCUUGAGGAUCACCCAAGUGGAAUAAGCCCUUGGCAGCAGAUCGCAUACU [Denovo 5 #StaticStem #AlternativeMS2] | 215 | 266 | 197 | 15.8 | 376
3 | AUCCACAGCCGAAGGAGCGCUAUAGGAUGACAUGAGGAUCACCCAUGUGUGUGAUGUGGAUAGCAGGUAGGUCGCGGAGUGGAUU [Exclusion - Arginine B (Freestyle 10)] | 73 | 29.5 | 92.5 | 29.1 | 26.3
4 | CCUAUAUAGUCGGCCGCCACUGACUACAUGAGGAUCACCCAUGUAACACGAACAUGGUCCUGGAUCAGGACCGGGACUAUAUAGG [Tryp B Ex t5] | 16.5 | 20.7 | 24.2 | 22.2 | 122
5 | AGAUUCGACACGGCCGCCACUUGUGGUGGAUUAUCCUGUGUCGAACAUGAGGAUCACCCAUGUACAAGGACCGGGUGUUGAGUCU [XTryp B #20] | 60.2 |  | 151 | 136 | 
6 | UCGUUUUAGUCGGCCGCCACUGUAUGCAUGUUUAACAUGAGGAUCACCCAUGUCCCGUUCUAUUUCAGGACCGGGACGUAAUCGA [JR_SSTryptoB_Sub008] | 106 |  | 382 | 619 | 
7 | AGUCUUAUAGGAAGGAGCGCAUACUUCACAUGAGGAUCACCCAUGUCAAGACGUGAGUCAGUGCAGGUAGGUCGCCUAACUAAGA [Same State - Arginine B (Freestyle 13)] | 27.2 | 29.2 | 29.7 | 32.1 | 27.7
8 | CAAUUUCGAAUAGAUACCAGCUGUCAUAAACACAUGAGGAUCACCCAUGUGCUUCUCGUCAGCCCUUGGCAGCUAUAACUAGAGC [theeternabot_sameState_MS2_Theo_B_40] | 15.4 |  | 16.5 |  | 16.1
9 | AACGUGAACGUGGUAUACCCGUGUGCCGAAGGAGCGCCCGAAAGGGCAGGUAGGUCGCGGACGACAUGAGGAUCACCCAUGUUUG | 42 | 73.5 | 97.2 | 87.5 | 57.7
10 | CCUGCGUUUCUUCUUUCGCAGGAGGAUGAUACCAGUAGGGAAACCUACCCUUGGCAGCAUGGGACAUGAGGAUCACCCAUGUGGA [SSThA NP+V+V2 #1] | 354 | 503 | 522 | 130 | 430
11 | UCACAUGAGGAUCACCCAUGUACAGGCGAUACCAGCCGUACAUUGGGCCCUUGGCAGCGCACCGAGACCUUUUAAAGCACUUCGG [Er] | 33.5 |  | 103 |  | 34.7
12 | AAUAUAAAAUAAAGAAAAUUUAUAUCUGAUACCAGACUCUCAUGGGUCCCUUGGCAGCAGUAACAUGAGGAUCACCCAUGUAUUA [JR_Nu_SSTheophyA_Sub026] | 67.7 |  | 70.6 |  | 123
13 | GGAUAGGACACGGCCGCCACUACCUAGGAUACUAGCAACAUUUGGGUACAUGAGGAUCACCCAUGUAGGACCGGGUGUCCUAUCG | 31.9 | 25.3 | 34.2 | 28.4 | 124
14 | GAGACGUCGGGAAGGAGCGCAUCAAAACCACACAUGAGGAUCACCCAUGUAUAAAUAUGCAUGCAGGUAGGUCGCCCGGUGUCCA [SS-ArgB16] | 24.2 | 27.1 | 33.6 | 33.1 | 29.1
15 | UUGGAUAUGCGAAGGAGCGGGAAAUAUAUAUAUAUAAUCCUAACAUGAGGAUCACCCAUGUCCCAGGUAGGUCGCGCAUAUUUGG [12.H] | 48.1 | 51.7 | 69.3 | 70.7 | 49.9
16 | UCGUGUAUUUCGGAUACCAGUGAAAUCGAUACAUGAGGAUCACCCAUGUGAGAGGAUGUACACCCUUGGCAGCUGUCUGUAUCUG [cxezmullin] | 14.6 |  | 20.2 |  | 15.5
17 | CCGGGCUGUGGAGACAUAGCCCGGACUGAAGGAGCGGGAAUAAACCCAGGUAGGUCGCAGAGAUCCACAUGAGGAUCACCCAUGU [!0.S] | 34.4 | 34 | 40.9 | 46.8 | 36.7
18 | AAAUAAAUACAUGAGGAUCACCCAUGUGAAGGAGCGCCCGUUAGGGCAGGUAGGUCGCACAUGAAUAACUCCGCGCGAAAGCGCA [MAT - Exclusion Arginine A - Mod of Eli - D10] | 41.8 | 38.7 | 37.1 | 52.6 | 35.8
19 | GGGAAAGGAGAAGAUACCAGCCGCCUCACAAGUCUACACUACAUGAGGAUCACCCAUGUGGGCCCUUGGCAGCUUGACCGCGAAA [theeternabot_exclusion_MS2_Theo_B_20] | 23.2 | 27.4 | 47.7 | 42 | 39.3
20 | AAAUAAAUAACUGAUACCAGUGUACUGACAUGAGGAUCACCCAUGUUGGGUUUUGUUGUACACCCUUGGCAGCAGAAAUAUAAAA [AstrosExyTheB#1] | 28.7 |  | 41.2 |  | 37.9
21 | AACAUGAGGAUCACCCAUGUGUCCUCGAAACGAGGACCGGUACGGCCGCCACUCGAAUAAGCUGUUGACGAAAAGUCAGCAGCAA [Mat - Exclusion - Trytophan A - D19] | 91 |  | 327 | 314 | 
22 | UGUAUGGACUGAAGGAGCGGAUGAUAUCAUGAGGAUCACCCAUGGAAUAAGGCGAAAGCCAUCCAGGUAGGUCGCAGUCCAUACU | 45.6 | 72.7 | 131 | 128 | 82.4
23 | GAGCGCAGUUUACAACAUACUAACACAGAUACCAGAAAUUUUAUGUUCCCUUGGCAGCUGACAACAUGAGGAUCACCCAUGUGCU [theeternabot_exclusion_MS2_Theo_A_27] | 17.5 |  | 21.2 |  | 15.7
24 | UGUAACAUGAGGAUCACCCAUGUGAGUGAUACCAGACUAGUAUUAGUCCCUUGGCAGCACGCUGGGCGAGUGUAUAGUCUAUGCG [Same State - Theophylline A (Freestyle 15)] | 69 |  | 125 |  | 75.5
25 | CGAAUACGAAUUGAUACCAGCAUGUUAACAUGAGGAUCACCCAUGUUAAGGAUAACAUAAUGCCCUUGGCAGCAACGUAAAUUCG [Ab] | 16.7 |  | 17.7 |  | 14.4
26 | ACUAGUUGUGCAGAUACCAGGCACGAGGAUCACCCGUGUUUGGGAUGUUCGCAUCUUCCUGUCCCUUGGCAGCUGUACAUCUAGA [Omei Theo B Exc v9] | 29.6 | 30.9 | 54.3 | 155 | 37.4
27 | UGUAUGUGAUUUGAUACCAGACCAGCUGGUGGUACAUGAGCAUCAGCCAUGUAGGUUUGGGUCCCUUGGCAGCAAAUCGCAUACU [SS Theo B #24 Ms2] | 20.7 | 21 | 28.7 | 19.3 | 21.4
28 | UGUAACAUGAGGAUCACCCAUGUGCACGAUACCAGCUUAUUGAUAGGCCCUUGGCAGCGUAUGCGGAAGCUGUAUAAUAUAUAUC [#27 SameState-TheophyllineA] | 10.3 |  | 18.6 |  | 10.8
29 | UAGCGAUAAUCUGAUACCAGACGUGUGCUCUCCUCAGACAUGAGGAUCACCCAUGUAUGCGUCCCUUGGCAGCAGAGUGAGGAGA [Theo B Ex t5] | 19.6 | 19.6 | 26.8 | 115 | 18.6
30 | GCUGGGUGCGCAAGGACCUGGCGUUGCGAUACCAGCACGGUAACGUGCCCUUGGCAGCGCACAUGAGGAUCACCCAUGUGGUGCG [#1 Exclusion - Theophylline A Attempt #21 (HarryS)] | 18.7 |  | 45.8 |  | 22.5
